EC50 data for one substance are collected here from patent publication US20260000752A1.

This test concerns the target human IgG (used as a control) (human). Put plainly: ELISA pH 7.4; human IgG control coated, biotinylated FcRn titrated, streptavidin-HRP.

For the substance “recombinant human FcRn, biotinylated (R&D Systems) (from UniProt P55899 24-297; P61769 21-119) (receptor)”, the EC50 – broadly, the concentration needed to bring the measured effect to its halfway point – came out at 0.0292 µg/mL.
